Source: US20160347801A1 (NATIONAL CANCER CENTER, published 2016)
One block for each molecule: values may come before it. Where no end group is shown, it is not given here. [ ]: non-standard residue; d: D form. pT = C[C@@H](OP(=O)(O)O)[C@H](N)C(=O)O

Tests used:
human PLK1-PBD (371-594) [1] = target: T1, human PLK1-PBD (371-594) (human, UniProt P53350 371-594); experiment: fluorescence polarization, FITC peptide 10 nM, PBD 0 to 4 µM
T1 construct: range 371-594; Made in E. coli as a GST fusion (pGEX6p-1); also called PBD of PLK1; purified PBD

[2] = target: T2, NCAPG2 (detected by immunoblotting in Flag-PLK1 immunoprecipitates) (human, UniProt Q86XI2 1-1143, limits assumed); experiment: Flag-bead pull-down, NCAPG2 immunoblot
T2 construct: Apparently the cells' own NCAPG2
T2 sequence: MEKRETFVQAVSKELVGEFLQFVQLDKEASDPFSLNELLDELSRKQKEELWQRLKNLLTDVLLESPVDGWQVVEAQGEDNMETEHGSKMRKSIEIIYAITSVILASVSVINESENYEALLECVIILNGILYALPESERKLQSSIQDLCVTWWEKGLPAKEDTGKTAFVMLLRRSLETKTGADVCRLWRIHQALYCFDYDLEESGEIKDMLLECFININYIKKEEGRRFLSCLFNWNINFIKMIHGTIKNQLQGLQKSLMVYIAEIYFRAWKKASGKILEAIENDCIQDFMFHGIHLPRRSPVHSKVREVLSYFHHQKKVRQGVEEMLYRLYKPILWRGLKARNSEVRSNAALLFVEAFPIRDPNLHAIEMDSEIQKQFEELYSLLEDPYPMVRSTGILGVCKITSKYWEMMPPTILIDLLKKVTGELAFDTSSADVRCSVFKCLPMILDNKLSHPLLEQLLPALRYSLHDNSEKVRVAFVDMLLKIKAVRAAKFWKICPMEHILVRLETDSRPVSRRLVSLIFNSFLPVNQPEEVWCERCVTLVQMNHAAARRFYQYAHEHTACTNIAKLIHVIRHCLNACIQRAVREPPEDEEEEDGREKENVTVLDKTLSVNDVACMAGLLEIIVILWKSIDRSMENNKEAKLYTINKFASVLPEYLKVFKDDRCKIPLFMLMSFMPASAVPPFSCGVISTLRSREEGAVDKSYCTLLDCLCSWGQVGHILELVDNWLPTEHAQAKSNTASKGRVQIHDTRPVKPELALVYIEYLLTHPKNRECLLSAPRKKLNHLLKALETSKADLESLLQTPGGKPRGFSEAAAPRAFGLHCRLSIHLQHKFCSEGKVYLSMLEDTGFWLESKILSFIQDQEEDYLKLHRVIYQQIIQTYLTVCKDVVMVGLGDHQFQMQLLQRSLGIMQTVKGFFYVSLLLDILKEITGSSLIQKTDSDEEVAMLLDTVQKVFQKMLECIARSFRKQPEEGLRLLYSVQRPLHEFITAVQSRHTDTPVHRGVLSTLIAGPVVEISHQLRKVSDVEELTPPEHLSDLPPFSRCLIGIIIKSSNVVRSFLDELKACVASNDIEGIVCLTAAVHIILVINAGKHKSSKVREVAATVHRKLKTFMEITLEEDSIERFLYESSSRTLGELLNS
Method: The primary antibodies were purchased from commercial sources as follows: Histon H3 pS10 (Abcam, Cambridge, UK), NCAPG2 (Novus Biological, 1/1000), PLK1 (Novus Biological, 1/1000), BubR1 (BD Biosciences, 1/1000), β-actin (Sigma-Aldrich, 1/5000), and CREST (ImmunoVision, 1/1000). BubR1 676 antibodies (1/10000) were prepared as previously reported (Elowe, S., et al. Tension-sensitive Plk1 phosphorylation on BubR1 regulates the stability of kinetochore microtubule interactions. Genes Dev 21, 2205-19 (2007)). The precipitates were washed with TAP buffer three times at 4° C., re-suspended in 20 μl of 2X Sample buffer (125 mM Tris (pH 6.8), 200 mM DTT, 4% SDS, 20% Glycerol, 0.004% Bromophenol Blue) and proteins were denatured at 100° C. for 5 min.
For the detection of proteins using the immunoblottings, subjects were protein complexes from immunoprecipitation or whole cell lysates harvested from indicated conditions. Whole cells were harvested with lysis buffer (20 mM Tris, 5 mM EDTA, 10 mM Na₄P₂O₇, 100 mM NaF, 2 mM Na₃VO₄, 1% Np-40, 0.2% Protease Inhibitor Cocktail, and 1 mM PMSF) and centrifuged at 10,000 rpm, 4° C., 10 min. Protein concentration was determined using BCA™ protein assay kit (Pierce, Rockford, USA). […]

human PLK3-PBD (412-646) = target: T3, human PLK3-PBD (412-646) (human, UniProt Q9H4B4 412-646); experiment: fluorescence polarization, FITC peptide 10 nM
T3 construct: range 412-646; GST fusion from pGEX6p-1, GST cleaved by 3C protease
T3 sequence (looked up): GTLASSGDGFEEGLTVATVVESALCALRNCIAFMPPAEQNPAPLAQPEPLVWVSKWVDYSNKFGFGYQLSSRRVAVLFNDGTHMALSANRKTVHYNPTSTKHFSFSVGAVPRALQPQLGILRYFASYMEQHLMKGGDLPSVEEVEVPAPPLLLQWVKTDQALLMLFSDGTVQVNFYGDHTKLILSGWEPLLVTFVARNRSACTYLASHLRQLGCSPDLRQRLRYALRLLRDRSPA
Method: (§1) The final protein concentrations ranged from 0 to 4 uM, and the final peptide concentration was 10 nM. Fluorescence polarization was analyzed 30 min after mixing the peptide and proteins in a 96-well plate using an INFINTE 200 PRO (Tecan). Binding curves were fitted using the GraphPad Prism software.

human PLK2-PBD (451-685) = target: T4, human PLK2-PBD (451-685) (human, UniProt Q9NYY3 451-685); experiment: fluorescence polarization, FITC peptide 10 nM
T4 construct: range 451-685; GST fusion from pGEX6p-1, GST cleaved by 3C protease
T4 sequence (looked up): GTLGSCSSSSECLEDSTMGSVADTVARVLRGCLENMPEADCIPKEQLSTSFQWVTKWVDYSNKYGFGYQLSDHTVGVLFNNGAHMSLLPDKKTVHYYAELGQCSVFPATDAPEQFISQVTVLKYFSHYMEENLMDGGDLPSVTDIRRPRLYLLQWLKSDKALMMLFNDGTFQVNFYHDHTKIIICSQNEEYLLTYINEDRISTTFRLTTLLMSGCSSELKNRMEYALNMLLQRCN
Method: as §1

human PLK1-PBD (371-594) [3] = target: T1, human PLK1-PBD (371-594); experiment: fluorescence polarization, FITC peptide 10 nM
Method: as §1

T1 sequence (P53350 371-594 limits assumed): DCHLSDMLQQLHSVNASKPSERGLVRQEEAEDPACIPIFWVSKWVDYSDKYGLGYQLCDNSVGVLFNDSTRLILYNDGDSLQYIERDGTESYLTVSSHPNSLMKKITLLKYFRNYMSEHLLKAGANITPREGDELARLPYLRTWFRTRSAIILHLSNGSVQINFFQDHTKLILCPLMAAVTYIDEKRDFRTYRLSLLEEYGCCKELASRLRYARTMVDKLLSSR

binding result (human PLK1-PBD (371-594) [3]): no binding (tested: protein 0 to 4 uM)
Molecule: GVLSDLI (also: FITC label, site not given here) [FITC-labeled 1010D peptide (GVLSDLI)]

binding result (human PLK1-PBD (371-594) [3]): no binding (tested: protein 0 to 4 uM)
Molecule: GVLSELI (also: FITC label, site not given here) [FITC-labeled 1010E peptide (GVLSELI)]

More lines, now with the values behind:

Molecule: FITC-labelled 1010pT peptide (GVLSpTLI)
Kd (human PLK1-PBD (371-594) [1]): 69.9 nM

B1: Flag-Plk1^FAA (other, UniProt P53350 1-603, looked up)
chain: MSAAVTAGKLARAPADPGKAGVPGVAAPGAPAAAPPAKEIPEVLVDPRSRRRYVRGRFLGKGGFAKCFEISDADTKEVFAGKIVPKSLLLKPHQREKMSMEISIHRSLAHQHVVGFHGFFEDNDFVFVVLELCRRRSLLELHKRRKALTEPEARYYLRQIVLGCQYLHRNRVIHRDLKLGNLFLNEDLEVKIGDFGLATKVEYDGERKKTLCGTPNYIAPEVLSKKGHSFEVDVWSIGCIMYTLLVGKPPFETSCLKETYLRIKKNEYSIPKHINPVAASLIQKMLQTDPTARPTINELLNDEFFTSGYIPARLPITCLTIPPRFSIAPSSLDPSNRKPLTVLNKGLENPLPERPREKEEPVVRETGEVVDCHLSDMLQQLHSVNASKPSERGLVRQEEAEDPACIPIFWVSKFVDYSDKYGLGYQLCDNSVGVLFNDSTRLILYNDGDSLQYIERDGTESYLTVSSHPNSLMKKITLLKYFRNYMSEHLLKAGANITPREGDELARLPYLRTWFRTRSAIILHLSNGSVQINFFQDATALILCPLMAAVTYIDEKRDFRTYRLSLLEEYGCCKELASRLRYARTMVDKLLSSRSASNRLKAS
notes: also called FAA mutant; substrate non recognizable FAA mutant; not shown: Flag tag
binding result [2]: no binding

B2: FITC-labelled 1010pT peptide (GVLSpTLI) (peptide)
peptide: GVLS[pT]LI
modifications: also: FITC label, site not given here
notes: this peptide carries pThr at the fifth position; also called phosphorylated 7-mer peptide 1006GVLS-pT-LI1012
binding result (human PLK3-PBD (412-646)): no binding (tested: protein 0 to 4 uM) | binding result (human PLK2-PBD (451-685)): no binding (tested: protein 0 to 4 uM)
